In test [1] the target is KD^pY1, mono-phosphorylated FGFR2 kinase domain (UniProt P21802). Put plainly: MST.
The target of test [2] is CT^C1, untagged C-terminal tail of FGFR2 (the last 58 residues) (UniProt P21802). Put plainly: MST.
In test [3] the target is FGFR2 juxtamembrane region (JM) (UniProt P21802). In words: MST.
Test [4] has as its target JM-KD^pY1 (UniProt P21802). In words: MST.
In test [5] the target is CT^C1, untagged C-terminal tail of FGFR2 (the last 58 residues) (UniProt P21802). Put plainly: SPR. Background: SPR reads the build-up and loss of mass on a sensor chip optically.
Test [6] has as its target JM-KD^pY1 (UniProt P21802). Put plainly: SPR.
In test [7] the target is FGFR2 juxtamembrane region (JM) (UniProt P21802). In words: MST. This is another data set of the same source.
For the next test, the target named is JM-KD^Y657/658F (UniProt P21802-3 414-764, Y657/658F).

Read-outs that look alike come from different tables or passages of the source.

As to JM peptide 414-430, in test [1], the Kd came to 36.8 µM. In other words, the double-digit micromolar range.
“KD^pY1, mono-phosphorylated FGFR2 kinase domain (from UniProt P21802-3 465-764) (domain or fragment)”: the equilibrium dissociation constant (Kd) worked out at 3.75 µM in test [2], 2.51 µM in test [3] and 0.112 µM in test [1].
With “JM-KD^pY1 (from UniProt P21802-3 414-764) (domain or fragment)”, the Kd in test [2] was 0.304 µM; with JM-KD^pY1 [4], 3.46 µM; in test [5], 0.165 µM; in the test with JM-KD^pY1 [6] it was 3.07 µM.
As to CT peptide 801-815, the equilibrium dissociation constant (Kd) in test [1] is 25.9 µM.
JM peptide 407-420 returned a fold weaker binding than peptide 414-430 in test [1] of 3 fold.

B1: CT^C1, untagged C-terminal tail of FGFR2 (the last 58 residues) (domain or fragment)
chain: TTNEEYLDLSQPLEQYSPSYPDTRSSCSSGDDSVFSPDPMPYEPCLPQYPHINGSVKT
modifications: Atto488 dye in the MST assays where CT is the labelled partner
For the molecule B1, the Kd stood at 20.2 µM in test [7] and 5.65 ± 1.9 µM with JM-KD^Y657/658F.

The Kd is the concentration at which binding is half-saturated. A high value points to weaker binding.

Source of the values: publication doi:10.1101/2020.10.01.322123 (bioRxiv, 2020).
